Assay results as given in paper PMC8539536, “Generation of a Soluble Form of Human Endoglin Fused to Green Fluorescent Protein” (International Journal of Molecular Sciences, 2021).

Target: the molecule itself
Test: SDS-PAGE under reducing and nonreducing conditions with Western blot; 3-day culture medium of CHO-K1 transfectants separated under reducing or nonreducing conditions; immunodetection with anti-GFP antibodies; positions of dimer and monomer compared

B1: endoglin–GFP fusion protein (extracellular domain of human endoglin fused with EGFP, from pEGFP–N1/Eng.EC) (domain or fragment, UniProt P17813 26-586, looked up)
chain: ETVHCDLQPVGPERGEVTYTTSQVSKGCVAQAPNAILEVHVLFLEFPTGPSQLELTLQASKQNGTWPREVLLVLSVNSSVFLHLQALGIPLHLAYNSSLVTFQEPPGVNTTELPSFPKTQILEWAAERGPITSAAELNDPQSILLRLGQAQGSLSFCMLEASQDMGRTLEWRPRTPALVRGCHLEGVAGHKEAHILRVLPGHSAGPRTVTVKVELSCAPGDLDAVLILQGPPYVSWLIDANHNMQIWTTGEYSFKIFPEKNIRGFKLPDTPQGLLGEARMLNASIVASFVELPLASIVSLHASSCGGRLQTSPAPIQTTPPKDTCSPELLMSLIQTKCADDAMTLVLKKELVAHLKCTITGLTFWDPSCEAEDRGDKFVLRSAYSSCGMQVSASMISNEAVVNILSSSSPQRKKVHCLNMDSLSFQLGLYLSPHFLQASNTIEPGQQSFVQVRVSPSVSEFLLQLDSCHLDLGPEGGTVELIQGRAAKGNCVSLLSPSPEGDPRFSFLLHFYTVPIPKTGTLSCTVALRPKTGSQDQEVHRTVFMRLNIISPDLSGCTSKG
notes: then a linker of 19 amino acids and 239 residues of GFP, 844 amino acids in all; Disulfide-linked dimer of ~275 kDa; glycosylated; also called Eng–GFP; source: CHO-K1, stably transfected with pEGFP–N1/Eng.EC, secreted, in culture medium; not shown: EGFP, C-terminal, kept
stoichiometry N: 2
